Experimental data: publication PMC4965137, “Temporal Shift of Circadian-Mediated Gene Expression and Carbon Fixation Contributes to Biomass Heterosis in Maize Hybrids”

What was measured:
Conditions in all cases: protein: recombinant; tags: MBP (pMAL-C2); label: 32P 5' end; blunt
rZmCCA1b [1] = biological target: T1, rZmCCA1b (Zea mays B73, UniProt K7U156 1-720); assay: EMSA; self-competed by 25-100X unlabeled DNA; 25 mM HEPES-KOH pH 7.5, 75 mM KCl, 2.5 mM DTT, 10% glycerol, 1.25 ng poly-dIdC; 20 fmol probe, 0.5-2 pmol protein; 10 min room temperature then 20 min on ice with probe; 5% native PAGE
T1 sequence (K7U156 entry or part of it): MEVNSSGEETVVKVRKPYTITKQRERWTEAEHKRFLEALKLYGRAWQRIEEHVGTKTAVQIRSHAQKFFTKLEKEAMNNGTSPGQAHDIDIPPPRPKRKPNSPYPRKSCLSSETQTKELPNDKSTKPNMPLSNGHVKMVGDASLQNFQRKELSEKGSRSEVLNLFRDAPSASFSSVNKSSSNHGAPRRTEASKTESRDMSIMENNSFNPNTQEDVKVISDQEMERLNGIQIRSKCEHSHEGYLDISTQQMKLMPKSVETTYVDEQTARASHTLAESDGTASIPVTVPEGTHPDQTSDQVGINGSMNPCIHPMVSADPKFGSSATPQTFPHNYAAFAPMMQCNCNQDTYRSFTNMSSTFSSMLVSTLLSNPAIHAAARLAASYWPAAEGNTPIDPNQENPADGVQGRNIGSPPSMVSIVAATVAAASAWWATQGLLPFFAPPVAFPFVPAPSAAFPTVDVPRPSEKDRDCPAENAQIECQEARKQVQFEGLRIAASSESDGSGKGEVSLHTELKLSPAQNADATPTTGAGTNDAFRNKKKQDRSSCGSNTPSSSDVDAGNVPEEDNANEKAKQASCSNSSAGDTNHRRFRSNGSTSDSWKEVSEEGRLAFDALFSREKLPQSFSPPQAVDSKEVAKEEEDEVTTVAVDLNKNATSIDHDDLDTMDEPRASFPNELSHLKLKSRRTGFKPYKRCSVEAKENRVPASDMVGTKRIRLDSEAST

rZmCCA1a = rZmCCA1a (Zea mays B73, UniProt B6SPA3 129-718); assay: EMSA; 1 pmol protein; 25 mM HEPES-KOH pH 7.5, 75 mM KCl, 2.5 mM DTT, 10% glycerol, 1.25 ng poly-dIdC; 20 fmol probe, 0.5-2 pmol protein; 10 min room temperature then 20 min on ice with probe; 5% native PAGE
Chain of rZmCCA1a (B6SPA3 entry or part of it): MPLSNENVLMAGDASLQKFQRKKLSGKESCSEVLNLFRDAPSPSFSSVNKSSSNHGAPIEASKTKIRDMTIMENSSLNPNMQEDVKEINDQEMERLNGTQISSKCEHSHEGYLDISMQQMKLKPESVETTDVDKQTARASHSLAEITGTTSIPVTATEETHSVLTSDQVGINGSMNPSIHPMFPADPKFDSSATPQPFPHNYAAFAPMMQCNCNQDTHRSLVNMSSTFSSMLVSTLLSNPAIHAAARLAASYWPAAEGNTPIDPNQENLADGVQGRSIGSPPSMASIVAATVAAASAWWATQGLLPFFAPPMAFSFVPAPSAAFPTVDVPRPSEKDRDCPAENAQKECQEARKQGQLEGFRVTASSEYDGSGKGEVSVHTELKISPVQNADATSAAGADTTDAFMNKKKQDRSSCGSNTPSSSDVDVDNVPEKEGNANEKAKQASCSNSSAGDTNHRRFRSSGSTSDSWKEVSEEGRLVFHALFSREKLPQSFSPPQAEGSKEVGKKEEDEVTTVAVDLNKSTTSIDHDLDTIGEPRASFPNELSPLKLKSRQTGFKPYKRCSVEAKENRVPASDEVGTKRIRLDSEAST

rZmCCA1b [2] = biological target: T1, rZmCCA1b; assay: EMSA; 25 mM HEPES-KOH pH 7.5, 75 mM KCl, 2.5 mM DTT, 10% glycerol, 1.25 ng poly-dIdC; 20 fmol probe, 0.5-2 pmol protein; 10 min room temperature then 20 min on ice with probe; 5% native PAGE

B1: gi1 promoter probe (dsDNA)
DNA 1: GCATCGCGGAAAAAATCTTTTTCTCGCC
DNA 2: GGCGAGAAAAAGATTTTTTCCGCGATGC
B1: binds (rZmCCA1b [1]); no binding (rZmCCA1a).

B2: ZmPRR59 promoter probe (dsDNA)
DNA 1: CTCTTTAAAAAAAAATCTTCATTTAAGG
DNA 2: CCTTAAATGAAGATTTTTTTTTAAAGAG
B2: binds (rZmCCA1b [1]); no binding (rZmCCA1a).

B3: ZmTOC1a promoter probe (dsDNA)
DNA 1: GGCGAGTTTTAGATATTTTCACCCGCTCC
DNA 2: GGAGCGGGTGAAAATATCTAAAACTCGCC
B3: binds (rZmCCA1b [1]); no binding (rZmCCA1a).

B4: GRMZM2G033885 promoter probe (dsDNA)
DNA 1: TCAGCACTGAAAAATATCTGAGGTTGAAA
DNA 2: TTTCAACCTCAGATATTTTTCAGTGCTGA
B4: binds (rZmCCA1b [2]).

B5: GRMZM2G129513 promoter probe (dsDNA)
DNA 1: ATTAAATATAAAAATATCTAAATTCATAA
DNA 2: TTATGAATTTAGATATTTTTATATTTAAT
B5: binds (rZmCCA1b [2]).
